Source: patent US20150259721A1

Molecular target: Her2 (UniProt P04626)
Experiment: cell-based or functional assay

4D5-AzAb (HC274)-AF (antibody)
EC50 nM, concentration of the drug to kill 50% of the tumor cells in vitro, HCC1954 cells: 0.0212 nM
EC50 nM, concentration of the drug to kill 50% of the tumor cells in vitro, SKOV3 cells: 0.187 nM
EC50 nM, in vitro potency (cytotoxicity), SKBR3 cells: 0.0074 nM
EC50 nM, in vitro potency (cytotoxicity), SKOV3 cells: 0.019 nM

4D5-AzAb (HC274: LC81)-AF (antibody)
EC50 nM, concentration of the drug to kill 50% of the tumor cells in vitro, HCC1954 cells: 0.0149 nM
EC50 nM, concentration of the drug to kill 50% of the tumor cells in vitro, SKOV3 cells: 0.0523 nM

4D5-AzAb (HC359)-AF (antibody)
EC50 nM, concentration of the drug to kill 50% of the tumor cells in vitro, HCC1954 cells: 0.0241 nM
EC50 nM, concentration of the drug to kill 50% of the tumor cells in vitro, PC3 cells: 1.33 nM
EC50 nM, concentration of the drug to kill 50% of the tumor cells in vitro, SKOV3 cells: 0.16 nM

4D5-AzAb (LC81)-AF (antibody)
EC50 nM, concentration of the drug to kill 50% of the tumor cells in vitro, HCC1954 cells: 0.0437 nM
EC50 nM, concentration of the drug to kill 50% of the tumor cells in vitro, PC3 cells: 1.13 nM
EC50 nM, concentration of the drug to kill 50% of the tumor cells in vitro, SKOV3 cells: 0.201 nM
